Source: the supplement of paper PMC9170038

Tested on: MS2 coat protein
Experiment: apparent KD of MS2 coat protein; designed switch direction (-1 OFF switch, 1 ON switch): -1; higher = weaker reporter binding
In short: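 On Illumina chips, designed RNA switches with common flanks were made by stalled E. coli RNA polymerase. Titrations with SNAP-549-labelled MS2 coat protein, doubling from 0.7 or 1.5 nM to 3 µM, were done with no input, with 200 uM small-molecule ligand, or with an oligonucleotide input. Apparent KD is the median per design over clusters, from curve fits of normalised cluster fluorescence.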

[1] = input ligand: microRNA oligo, concentration not stated
[2] = Eterna round: R95, input ligand: microRNA oligo, concentration not stated
[3] = Eterna round: R95, input ligand: FMN 200 uM
[4] = Eterna round: R95, input ligand: none

AUGUUGCGAGGAUAUAUAAGGAGGUUAAAAUUUAUUAUGGAACAUGAGGAUCACCCAUGUAGAAGGUGCAUAAC [JR_Ex2_Sub038] (Eterna round: R97, puzzle: Exclusion 2)
apparent KD of MS2 coat protein (input ligand: FMN 200 uM): 49.6 nM
apparent KD of MS2 coat protein (input ligand: none): 55.7 nM

AUUAAACAUGUAGGAUAUGCGUGGCAAAGCUAUGCAGAAGGACAUGAGGAUCACCCAUGUAAAAGCGUCUGCGUACAGAUGCAA [Mat - Exclusion NG 1 - Mod of JL - D86] (Eterna round: R96, puzzle: Exclusion NG 1)
apparent KD of MS2 coat protein (input ligand: FMN 200 uM): 314 nM
apparent KD of MS2 coat protein [1]: 30.7 nM
apparent KD of MS2 coat protein (input ligand: none): 41.3 nM

AUUAGCGUAGGAUAUUAGUACAUGUACAUGAGGAUCACCCAUGUGAGGUGAGUCUUAGAUUAAGAAGGGCGAAGAA [EX5 #34] (Eterna round: R97, puzzle: Exclusion 5)
apparent KD of MS2 coat protein (input ligand: FMN 200 uM): 309 nM
apparent KD of MS2 coat protein (input ligand: none): 704 nM

AUUAUGUUAGGAUAUGCUUAUGGUGGAUAGUCCAAUGUGGUGCAGAAGGGACAUGAGGAUCACCCAUGUACUGA [EX4 #29] (Eterna round: R97, puzzle: Exclusion 4)
apparent KD of MS2 coat protein (input ligand: FMN 200 uM): 70.5 nM
apparent KD of MS2 coat protein (input ligand: none): 58.6 nM

AUUGUUUAUGUAGGAUAUGCCUGGCGUGCCUUUGCAGAAGGACAUGAGGAUCACCCAUGUAUUGCGGUCUGCGUUCAGAUCGCG [salish99_ExNG1_r4_034] (Eterna round: R96, puzzle: Exclusion NG 1)
apparent KD of MS2 coat protein (input ligand: FMN 200 uM): 46.9 nM
apparent KD of MS2 coat protein [1]: 22.5 nM
apparent KD of MS2 coat protein (input ligand: none): 27.4 nM

AUUUACGGAGGAUAUACUUGAGGAUCACCCAAGUGGAGUCCCGUUUGGGCGGUAAAUAGUAGAAGGCCGUCCUA [jl-ex3-4.46 ViennaUCT mod] (Eterna round: R97, puzzle: Exclusion 3)
apparent KD of MS2 coat protein (input ligand: FMN 200 uM): 27.7 nM
apparent KD of MS2 coat protein (input ligand: none): 16.2 nM

AUUUAUAAUGUAGGAUAUGGAUUCGAAACGUAUCCAGAAGGACAUGAGGAUCACCCAUGUACAUGAGGAUCACCCAAUUUAUUA [Fiskers ExNg1 - 10] (Eterna round: R96, puzzle: Exclusion NG 1)
apparent KD of MS2 coat protein (input ligand: FMN 200 uM): 98 nM
apparent KD of MS2 coat protein [1]: 46.7 nM
apparent KD of MS2 coat protein (input ligand: none): 59.3 nM

AUUUUGUCAGGAUAUGACUAGUAGGACGAGAGUGCUACUACUUAGAAGGGACAUGAGGAUCACCCAUGUAUUCC [Bring Us a Shrubbery-09] (puzzle: Exclusion 4)
apparent KD of MS2 coat protein [2]: 14.1 nM

CAAAAGCGAGGAUAUACAUGAGGAUCACCCAUGUGGCAGCCAUGUAGGAGUGACGUCGGUAGAAGGCGCACCCU [Soaran] (puzzle: Exclusion 3)
apparent KD of MS2 coat protein [2]: 76.2 nM

CAAAAGGUAGGAUAUACGAAAAAAAAGGGUAGAAAAAAAACACAUGAGGAUCACCCAUGUAGAAGGACCAAAAA [salish99_ex2_r3_055] (puzzle: Exclusion 2)
apparent KD of MS2 coat protein [3]: 67.6 nM
apparent KD of MS2 coat protein [2]: 22 nM
apparent KD of MS2 coat protein [4]: 24.5 nM

CAAAAGGUAGGAUAUACGAAAAAAAAGGGUAGAAAAAAAACACAUGAGGAUCACCCAUGUAGAAGGACCAAAAC [salish99_ex2_r3_042] (puzzle: Exclusion 2)
apparent KD of MS2 coat protein [3]: 95.7 nM
apparent KD of MS2 coat protein [2]: 22.6 nM
apparent KD of MS2 coat protein [4]: 21.6 nM

CAAACUUCGCGAGGAUAUGGGAUCAUAUAGAUGCCAGAAGGCGCGACAUGAGGAUCACCCAUGUGUUUUGCCCUGUGAUUCCAG [Eternabot solution 12] (Eterna round: R96, puzzle: Exclusion NG 1)
apparent KD of MS2 coat protein (input ligand: FMN 200 uM): 22.2 nM
apparent KD of MS2 coat protein [1]: 16.6 nM
apparent KD of MS2 coat protein (input ligand: none): 21.5 nM

CACAAGCUUUUUUGAUGCAUUUUAGUUGGUUUCCUUUUUACAUGAGGAUCACCCAUGUUUAUGAAGCUCGAUCUUUU [JR_SV3TOV2_Sub079] (puzzle: Sensor v3, turn-off variant 2)
apparent KD of MS2 coat protein [3]: 54.3 nM
apparent KD of MS2 coat protein [2]: 49.2 nM
apparent KD of MS2 coat protein [4]: 60.1 nM

CACCCUGAUGACAAAUUACAUGAGGAUCACCCAUGUGCCUCGCAGGAUAUCCCAGCACGUCGCAAGGAGAAGGGCGACGCGCCA [Ralerira] (Eterna round: R96, puzzle: Exclusion NG 3)
apparent KD of MS2 coat protein (input ligand: FMN 200 uM): 31.5 nM
apparent KD of MS2 coat protein [1]: 23.9 nM
apparent KD of MS2 coat protein (input ligand: none): 41.3 nM

CACCGUUACAGAGGAUAUGACACAUGAGGAUCACCCAUGUAAUAAAUGAGAAUUUCGAAUGUAACUCAGAAGGCUGGAAUCGGC [Ostricism 77 - Jieux - Exclusion NG 2] (Eterna round: R96, puzzle: Exclusion NG 2)
apparent KD of MS2 coat protein [1]: 22.1 nM

CACCGUUACAGAGGAUAUGACACAUGAGGAUCACCCAUGUAAUAAAUGAGAAUUUCGAAUGUACCUCAGAAGGCUGGAACCGGC [Ostricism 78 - Jieux - Exclusion NG 2] (Eterna round: R96, puzzle: Exclusion NG 2)
apparent KD of MS2 coat protein (input ligand: FMN 200 uM): 61.2 nM
apparent KD of MS2 coat protein [1]: 31.5 nM
apparent KD of MS2 coat protein (input ligand: none): 38.7 nM

CACCUGAAGACAGGAUAUCAUACAUGAGGAUCACCCAUGUAAUAAAUGAGAAUUUCGAAUGUAAUUGAGAAGGGUCGAUAAGGC [Ostricism 91 - Jieux - Exclusion NG 2] (Eterna round: R96, puzzle: Exclusion NG 2)
apparent KD of MS2 coat protein (input ligand: FMN 200 uM): 78.9 nM
apparent KD of MS2 coat protein [1]: 30.6 nM
apparent KD of MS2 coat protein (input ligand: none): 30.6 nM

CACGUGUCAGGAUAUAGGACAGAUAUAGUCACAAUCUCUGCCUAGAAGGGACAUGAGGAUCACCCAUGUCUAUA [EX4 C.17] (Eterna round: R97, puzzle: Exclusion 4)
apparent KD of MS2 coat protein (input ligand: FMN 200 uM): 27.6 nM
apparent KD of MS2 coat protein (input ligand: none): 20.5 nM

CAGACACAUGAGGAUCACCCAUGUAAGGAUAUGAACUGUGGUAACGGAGCCAGCGGGUUCAGAAGGUGCGUGAC [Eternabot (L1) Solution 19] (Eterna round: R97, puzzle: Exclusion 1)
apparent KD of MS2 coat protein (input ligand: FMN 200 uM): 77.9 nM
apparent KD of MS2 coat protein (input ligand: none): 91.4 nM

CAGCUGAAAGUCAGGAUAUCUAGAGCGAUAGCUCUAGAGAAGGGACAUGAGGAUCACCCAUGUGGUCACAGCUG [BmEx4/5-A4] (Eterna round: R97, puzzle: Brourd's mod of Exclusion 4)
apparent KD of MS2 coat protein (input ligand: FMN 200 uM): 169 nM
apparent KD of MS2 coat protein (input ligand: none): 648 nM

CAGCUGAAUGUCAGGAUAUCUAGAGCGAUAGCUCUAGAGAAGGGACAUGAGGAUCACCCAUGUCACUCCAGCUG [BmEx4/3-B4] (Eterna round: R97, puzzle: Brourd's mod of Exclusion 4)
apparent KD of MS2 coat protein (input ligand: FMN 200 uM): 29.5 nM
apparent KD of MS2 coat protein (input ligand: none): 18.2 nM

CAGCUGUGAGGAUAUACAUGAGGAUCACCCAUGUUAAGGAAGUGGUGUAUAUUGUAGUGUAGAAGGCACUUGUC [JR_Ex3_Sub026] (Eterna round: R97, puzzle: Exclusion 3)
apparent KD of MS2 coat protein (input ligand: FMN 200 uM): 234 nM
apparent KD of MS2 coat protein (input ligand: none): 123 nM

CAGGACAGAGGAUAUACAUAGAUACAGAUUCAUGUAGAACUACAUGAGGAUCACCCAUGUAGAAGGCUGACCUG [Fiskers Ex 2 - 4] (Eterna round: R96, puzzle: Exclusion 2)
apparent KD of MS2 coat protein (input ligand: FMN 200 uM): 311 nM
apparent KD of MS2 coat protein [1]: 23.5 nM
apparent KD of MS2 coat protein (input ligand: none): 31.5 nM

CAGGACAGAGGAUAUACAUAGAUACAGAUUCAUGUAGAACUACAUGAGGAUCACCCAUGUAGAAGGCUGACCUG [Fiskers Ex 2 - 4] (puzzle: Exclusion 2)
apparent KD of MS2 coat protein [2]: 27.8 nM

CAGGAUAGAGGAUAUACAUAGAUACAGAUUCAUGUGAUCCUACAUGAGGAUCACCCAUGUAGAAGGCUAACCUG [Fiskers Ex 2 - 24] (puzzle: Exclusion 2)
apparent KD of MS2 coat protein [2]: 306 nM

CAGGAUAGAGGAUAUGCAUAGAUACAGAUUCAUGUAAUCCUACAUGAGGAUCACCCAUGUAGAAGGCUAUCCUG [Fiskers Ex 2 - 17] (puzzle: Exclusion 2)
apparent KD of MS2 coat protein [2]: 14.7 nM

CAGGGCAUGCGAGGAUAUAGCAACAUGAGGAUCACCCAUGUAUAAGGGUGUCCUAGGCAUGCGCGCUAGAAGGCGCUGGUUCUC [Onreusve] (Eterna round: R96, puzzle: Exclusion NG 2)
apparent KD of MS2 coat protein (input ligand: FMN 200 uM): 431 nM
apparent KD of MS2 coat protein [1]: 18.9 nM
apparent KD of MS2 coat protein (input ligand: none): 75.5 nM

CAGUACAGAGGAUAUACAUGAGGAUCACCCAUGUGUUUCAGGUACGAAAGUACCGAAUGUAGAAGGCUGUACUG [jl-ex3-4.25 salish99 mod] (Eterna round: R97, puzzle: Exclusion 3)
apparent KD of MS2 coat protein (input ligand: FMN 200 uM): 244 nM
apparent KD of MS2 coat protein (input ligand: none): 25.6 nM

CAGUACAGAGGAUAUACAUGAGGAUCACCCAUGUGUUUCAGGUACGAGAGUACCGAGUGUAGAAGGCUGUACUG [jl-ex3-4.28 salish99 mod] (Eterna round: R97, puzzle: Exclusion 3)
apparent KD of MS2 coat protein (input ligand: FMN 200 uM): 244 nM
apparent KD of MS2 coat protein (input ligand: none): 38.1 nM

CAGUACUGAGGAUAUACAUGAGGAUCACCCAUGUGAGAGAUACUAGUGAGGUCGAUUAGUAGAAGGCAGUACUG [Mat X3R4 m3] (Eterna round: R97, puzzle: Exclusion 3)
apparent KD of MS2 coat protein (input ligand: FMN 200 uM): 856 nM
apparent KD of MS2 coat protein (input ligand: none): 35.7 nM

CAGUACUGAGGAUAUACAUGAGGAUCACCCAUGUGUGUGAGAUUUGUGUGGUUGUUUUGUAGAAGGCGGUGCUG [JR_Ex3_Sub031] (Eterna round: R97, puzzle: Exclusion 3)
apparent KD of MS2 coat protein (input ligand: FMN 200 uM): 19.1 nM
apparent KD of MS2 coat protein (input ligand: none): 91.2 nM

CAGUACUGAGGAUAUACAUGAGGAUCACCCAUGUGUUUUCUACUAGGAAACUAGGUAUGUAGAAGGCAGUACUG [Omei Ex3 Mod of Eli 4.27 v3] (Eterna round: R97, puzzle: Exclusion 3)
apparent KD of MS2 coat protein (input ligand: FMN 200 uM): 194 nM
apparent KD of MS2 coat protein (input ligand: none): 22.9 nM

CAGUACUGAGGAUAUACAUGAGGAUCACCCAUGUUGAGAUGAAAAGAAAGAGUUAAAUGUAGAAGGCGGUGCUG [JR_Ex3_Sub047] (Eterna round: R97, puzzle: Exclusion 3)
apparent KD of MS2 coat protein (input ligand: FMN 200 uM): 523 nM
apparent KD of MS2 coat protein (input ligand: none): 71.1 nM

CAGUACUGAGGAUAUACAUGAGGAUCACCCAUGUUGAGAUGAAAAGAAAUAGUUUCAUGUAGAAGGCGGUGCUG [JR_Ex3_Sub048] (Eterna round: R97, puzzle: Exclusion 3)
apparent KD of MS2 coat protein (input ligand: FMN 200 uM): 365 nM
apparent KD of MS2 coat protein (input ligand: none): 118 nM

CAUACACAUGAGGAUCACCCAUGUGAGGAUAUGCGUACGUUGUCCGUAGGCGACGUGCGCAGAAGGCGCUUGGU [JL-ex1-3.18 Eli mod] (puzzle: Exclusion 1)
apparent KD of MS2 coat protein [2]: 49 nM
